Experimental data reported in patent US5180678A, “Uses of substantially pure interleukin-9 receptor” (Ludwig Institute for Cancer Research, priority 1992, dated 1993).

Experiments:
TS1 cells = experiment: Internalization of bound labelled rIL-9 (resistance to acid induced dissociation); assay type: cell-based, mouse; settings: TS1 cells saturated at 4° C. with 3.3×10^-10 M labelled rIL-9, then 37° C.; after about one hour; acid pH 3.0 (FIG. 5)
Experimental: It is known that when cytokines are mixed with their receptors at 37° C., they bind thereto when incubated and this is generally followed by internalization of the cytokine. This is determined via testing for increased resistance to acid induced dissociation of bound radiolabel.
To test this for the labeled rIL-9, 7×10^6 TS1 cell/ml were incubated at 4° C. in binding medium as described supra, but lacking Na3 N, with either 3.3×10^-10 M labelled rIL-9, or this concentration of the labelled cytokine plus a 100 fold excess of unlabeled rIL-9. This saturates the cells. After three hours of incubation, the cells were washed with cold binding medium to remove unbound ligand, and the cells were transferred to medium lacking rIL-9, at a temperature of 37° C. At various time intervals, the cells were incubated for two minutes with either of 360 ul of binding medium, or with citrate buffer (50 mM, pH 2.5). Contact with citrate buffer, in effect, exposed the cells to a pH of 3.0.

T helper clone TUC2.15 = experiment: IL-9 induced proliferation, thymidine incorporation; assay type: cell-based; settings: resting TUC2.15 cells, saturating IL-9, thymidine incorporation day 3
Experimental: (§1) The correlation between IL-9 and proliferation of T4 cell lines in response to IL-9 was studied. Resting T cells were collected from two week cultures, and 2×10^6 cells were stimulated by antigen (KLH, 25 ug/ml) in the presence of 70×10^6 & spleen cells for four days. Blasts were isolated by centrifugation and IL-9 binding was determined following incubation with 7.5×10^-10 M labelled rIL-9. Resting cells which had not been restimulated were treated in parallel. Maximal IL-9 induced proliferation was measured by incubation of resting cells in microliter plates (50,000/well), either with or without saturating concentrations of IL-9. Radioactive thymidine incorporation, which was the manner in which proliferation was determined, was measured on day 3.

T helper clone TUC7.11 = experiment: as above; assay type: cell-based; settings: resting TUC7.11 cells, saturating IL-9, thymidine incorporation day 3
Experimental: as §1

T helper clone TUC7.33 = experiment: as above; assay type: cell-based; settings: resting TUC7.33 cells, saturating IL-9, thymidine incorporation day 3
Experimental: as §1

T helper clone TUC7.51 = experiment: as above; assay type: cell-based; settings: resting TUC7.51 cells, saturating IL-9, thymidine incorporation day 3
Experimental: as §1

IL-9R [1] = biological target: T1, IL-9R (Mus musculus, UniProt Q01114); experiment: IL-9 binding to resting and activated T helper clones; set-up: endogenous in cells; settings: 7.5×10^-10 M labelled rIL-9
T1 sequence (Q01114 38-468): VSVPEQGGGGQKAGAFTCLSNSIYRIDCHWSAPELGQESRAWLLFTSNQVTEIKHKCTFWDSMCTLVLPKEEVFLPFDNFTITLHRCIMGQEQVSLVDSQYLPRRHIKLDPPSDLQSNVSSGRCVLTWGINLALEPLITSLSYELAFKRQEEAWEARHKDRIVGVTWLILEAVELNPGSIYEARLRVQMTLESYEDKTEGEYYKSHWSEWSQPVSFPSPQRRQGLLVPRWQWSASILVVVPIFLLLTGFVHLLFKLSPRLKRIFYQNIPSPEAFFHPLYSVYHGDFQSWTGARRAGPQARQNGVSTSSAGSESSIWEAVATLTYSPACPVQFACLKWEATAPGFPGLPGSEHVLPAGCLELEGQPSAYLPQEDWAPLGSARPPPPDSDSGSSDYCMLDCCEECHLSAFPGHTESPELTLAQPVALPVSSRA
Experimental: as §1

IL-9R [2] = biological target: T1, IL-9R; experiment: Competitive binding of radiolabelled rIL-9 to TS1 cells (specificity of IL-9 binding); set-up: a number of different cell types were tested for the presence of the IL-9R molecule; endogenous in cells; settings: competitor 6.1 × 10^-10 M; labelled rIL-9 6.1×10^-10 M, 10^6 TS1 cells, 3 h 4° C.; no competitor 4083 ± 16
Experimental: In order to test whether the radioactive IL-9 would bind to TS1 cells which are mouse cells, which are IL-9 dependent, a competitive assay was carried out. Specifically, rIL-9 was incubated with TS1 cells in 140 ul of DMEM containing BSA (10 mg/ml) and Na3 N (10 mM). In order to determine the level of binding, a 100 fold excess of "cold", i.e., non-radiolabelledIL-9, was also mixed with the material. The rIL-9 was admixed at 6.1×10^-10 M, for three hours at 4° C., with 10^6 TS1 cells. Bound material was separated from free ligand via centrifugation over a layer of dibutyl and dioctyl phthalate (15:I). In addition, the experiments were repeated using various interleukins, interferon-γ ("INF-γ"), tumor necrosis factor ("TNF"), and granulocyte, macrophage colony stimulating factor ("GM-CSF"). All experiments were carried out in triplicate.

Substance: IL-9: lymphokine interleukin-9, T-cell derived growth factor; in Tables II and III the 125I-labelled recombinant form is used
- internalization of IL-9 (TS1 cells): most of the IL-9 was internalized
- IL-9 induced proliferation Stimulatin Index (T helper clone TUC2.15): 11.2
- IL-9 induced proliferation Stimulatin Index (T helper clone TUC7.11): 1.1
- IL-9 induced proliferation Stimulatin Index (T helper clone TUC7.33): 0.8
- IL-9 induced proliferation Stimulatin Index (T helper clone TUC7.51): 23.8
- IL-9 binding Activated Cells (IL-9R [1]; T helper clone TUC2.15, antigen (KLH) stimulated blasts): 532 mol/cell
- IL-9 binding Resting Cells (IL-9R [1]; T helper clone TUC2.15): 159 mol/cell
- IL-9 binding Resting Cells (IL-9R [1]; T helper clone TUC7.11): < 10 mol/cell
- IL-9 binding Activated Cells (IL-9R [1]; T helper clone TUC7.33, antigen (KLH) stimulated blasts): < 10 mol/cell
- IL-9 binding Resting Cells (IL-9R [1]; T helper clone TUC7.33): 21 mol/cell
- IL-9 binding Activated Cells (IL-9R [1]; T helper clone TUC7.51, antigen (KLH) stimulated blasts): 514 mol/cell
- IL-9 binding Resting Cells (IL-9R [1]; T helper clone TUC7.51): 94 mol/cell
- Bound Radioactivity (IL-9R [2]): 1181 ± 123 cpm
